Four molecules from PMC10349087 (Nature Communications, 2023) can be followed below.

B1: NIV-8 Fab (Fab, V domains shown)
VH: EVQLVESGGGVVQPGRSLRLSCAASGFKFSKFAMHWVRQAPGKGPEWVAVISYDGNQYHSADSVKGRFTISRDNSFNTLYLQMNSLGPEDTAVYYCARDGPDTSGYYANIYFDFWGQGTLVTVSS
VL: QSVLTQPPSVSGAPGQRVTISCTGSSSNIGAGYDVHWYQQLPGRAPKLLIFDNNNRPSGVPDRFSGSKSGTSASLAITGLQTEDEAYYYCQSYDNSLILAVFGGGTKVTVL
B2: NIV-11 Fab (Fab, V domains shown)
VH: QLVQSGPEVKKPGTSVKVSCKASGFTFYYSAVQWVRQARGQRLEWLGWMAVGSGKANYAQKFQERLTLTRDMSTSTAYMELSSLRSEDTAVYYCAAPNCTGGSCYDGFNLWGQGTVVTVSS
VL: EIVLTQSPGTLSLSPGDRAILSCRASQTVNSNYLAWYQQKPGQAPRLLIYGTSSRATGIPDRFSGSGSGTDFTLTISRLEPEDFAVYYCQQYGSSPWLFGQGTKVEIK
B3: NIV-13 Fab (Fab, V domains shown)
VH: EVQLLESGGGLVQPGGSLRLSCAASGFTFSRYALSWVRQAPGKGLEWVSAISGAAITTYYADSVKGRFTISRDDSRNTLFMQMDSLRAEDTAVYYCAKGDYYDSSGYLAEYFPHWGQGTLVTVSS
VL: SYELTQPPSVSVSPGQTARITCFADALPKQHAYWYQQKAGQAPVLVIFKDTERPSGIPKRFSGSRSGATVTLTISGVQAEDEADYYCQSTDISGVLFGGGTKLTVL
B4: NIV-10 Fab (Fab, V domains shown)
VH: EVQLVESGGGLVQPGGSLRLSCAASGFTFYSYWMTWVRQAPGKGLEWVANIKHDESESHYVDSVRGRFTISRDNAKNSVYLQMKGLRAEDTAVYYCARDGGYNILTAYYHAPSYWGQGTLVTVSS
VL: QSALTQPASVSGSPGQSITISCTGTSSDVGGYNFVSWYRQYPGKAPQLMIYDVSRRPSGDSDRFSGSKSGNTASLTISGLQAEDEAEYHCSSYTGRSPYVVFGGGTKVTVL

For one experiment, the target named is SARS-CoV-2 spike receptor-binding domain, Omicron BA.2 variant (amino acids 331-529), biotinylated (SARS-CoV-2 Omicron BA.2, G504D | S371F | S375F | T376A | D405N | R408S | K417N | N440K | S477N | T478K | …, biotin (RBD expression vector co-expressed with BirA-Flag, 100 μM biotin added)). Put plainly: BLI. Particulars: both partners purified.
In general, Kd refers to the concentration at which binding is half-saturated. What is called koff is the first-order rate constant of dissociation. Lower therefore signals a long-lived complex. One may read the kon as the rate constant with which the complex forms. The low end stands for slow association, the high end for fast association. Molecule B1 registered a Kd of 20 nM, a koff of 0.00206 s⁻¹ and a kon of 103000 M⁻¹ s⁻¹.

The molecule B2 showed a Kd of 11 nM, a koff of 0.00355 s⁻¹ and a kon of 322000 M⁻¹ s⁻¹.

Take B3: the Kd is 1.49 nM, the koff was determined as 0.000369 s⁻¹ and the kon stood at 247000 M⁻¹ s⁻¹.

As for B4, binding was characterised by a dissociation constant (Kd) of 76.1 nM, the koff is 0.0064 s⁻¹ and the kon came out at 84100 M⁻¹ s⁻¹.

The next experiment addresses SARS-CoV-2 spike receptor-binding domain, Delta variant (amino acids 331-529), biotinylated (SARS-CoV-2, Delta, L452R | T478K, biotin (RBD expression vector co-expressed with BirA-Flag, 100 μM biotin added)). Description: BLI. The note with it: both partners purified.
For the molecule B1, the Kd was 0.00475 nM, the koff was 1.28e-06 s⁻¹ and the kon was determined as 269000 M⁻¹ s⁻¹.

Regarding B2, the Kd amounted to 0.00478 nM, the koff came to 5.08e-07 s⁻¹ and the kon came out at 106000 M⁻¹ s⁻¹.

As for B3, the affinity, expressed as Kd, was 0.0919 nM; the koff came to 3.72e-05 s⁻¹; the kon worked out at 405000 M⁻¹ s⁻¹.

As for B4, the affinity, expressed as Kd, was 0.00371 nM; the koff was determined as 1.31e-06 s⁻¹; the kon came to 354000 M⁻¹ s⁻¹.

The target in the next experiment is SARS-CoV-2 spike receptor-binding domain, Omicron BA.1 variant (amino acids 331-529), biotinylated (SARS-CoV-2, Omicron BA.1, G339D | S371L | S373P | S375F | K417N | N440K | G446S | S477N | T478K | E484A | …, biotin (RBD expression vector co-expressed with BirA-Flag, 100 μM biotin added)). Description: BLI. Particulars: both partners purified.
Take B1: the Kd turned out to be 24.7 nM, the koff is 0.00312 s⁻¹ and the kon is 126000 M⁻¹ s⁻¹.

As to B2, binding was put at a Kd of 9.14 nM, the koff is 0.00335 s⁻¹ and the kon stood at 366000 M⁻¹ s⁻¹.

B3 returned a Kd of 0.802 nM, a koff of 0.000248 s⁻¹ and a kon of 309000 M⁻¹ s⁻¹.

B4: binding was put at a Kd of 96.6 nM, the koff is 0.0124 s⁻¹ and the kon was 129000 M⁻¹ s⁻¹.
